Values of other authors, collected in article PMC8945002.

Biological target: BfrB (recombinant) (Pseudomonas aeruginosa) (UniProt Q9HY79)
Assay: SPR

BfrB (recombinant) (Pseudomonas aeruginosa), sequence (Q9HY79 whole entry): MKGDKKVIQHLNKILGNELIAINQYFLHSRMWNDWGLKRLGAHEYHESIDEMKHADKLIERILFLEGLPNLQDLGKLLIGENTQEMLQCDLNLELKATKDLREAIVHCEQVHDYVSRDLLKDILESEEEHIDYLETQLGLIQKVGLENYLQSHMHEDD
Bfd, sequence (Q9HY80 whole entry): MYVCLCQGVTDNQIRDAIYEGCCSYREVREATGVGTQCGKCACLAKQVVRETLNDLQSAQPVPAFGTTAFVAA

In the case of Bfd (from UniProt Q9HY80), the Kd is listed as 3.3 µM.
